Laboratory results as given in patent publication US20250304927A1, “PRO-PEPTIDE VARIANTS FOR MODULATING ACTIVITY OF TRANSGLUTAMINASES” (CURIE CO. INC., priority 2022, published 2025).

T1: thermostable variant of Streptomyces mobaraensis transglutaminase (Streptomyces mobaraensis, UniProt P81453 79-407)
T1 sequence: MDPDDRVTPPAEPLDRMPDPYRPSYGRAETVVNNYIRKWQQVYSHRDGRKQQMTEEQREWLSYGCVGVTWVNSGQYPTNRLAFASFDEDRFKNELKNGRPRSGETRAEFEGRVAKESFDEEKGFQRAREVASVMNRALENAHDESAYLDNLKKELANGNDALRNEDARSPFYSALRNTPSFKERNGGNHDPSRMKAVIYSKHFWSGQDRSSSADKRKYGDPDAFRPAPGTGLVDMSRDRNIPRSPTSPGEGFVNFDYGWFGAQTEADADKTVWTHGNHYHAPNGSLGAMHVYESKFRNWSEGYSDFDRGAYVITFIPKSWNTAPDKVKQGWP


What follows are binders tested against T1, thermostable variant of Streptomyces … (assay: cell-based or functional assay).

Improvement in binding affinity of inhibitory peptide relative to WT [fold] | Binder
> 1.2 | MFNGAGEETKSYAETYRLTADDVANINALNESAPAASSAGPSFRAP [pro-peptide variant D2F]

Target: T1, thermostable variant of Streptomyces …
Experiment: cell-based or functional assay
Remark: another data set of the same source

Improvement in pH responsiveness of inhibitory peptide relative to WT [fold] | Binder
> 1.2 | MDNGAGEESKSYAETYRLTADDVANINALNESAPAASSAGPSFRAP [pro-peptide variant T9S]
> 1.2 | MDNGAGEETKSYAETYRLTADDVANINALNESAPAASRAGPSFRAP [pro-peptide variant S38R]
> 1.2 | MDNGAGEETKTYAETYRLTADDVANINALNESAPAASSAGPSFRAP [pro-peptide variant S11T]
> 1.2 | MDNGAGEETKSYAETYRLTADDVANINALNESAPAASSAGPSFRAM [pro-peptide variant P46M]
> 1.2 | MDNGAGEETKSRAETYRLTADDVANINALNESAPAASSAGPSFRAP [pro-peptide variant Y12R]
> 5 | MDNGAGEETKSYAETYRLTADDVANINALNESAPAASSAGPSFRAG [pro-peptide variant P46G]
> 1.2 | MDNGAGEETKAYAETYRLTADDVANINALNESAPAASSAGPSFRAP [pro-peptide variant S11A]

Continued, binder first:

Binder | Improvement in pH responsiveness of inhibitory peptide relative to WT [fold]
MDNGAGEETKSYAETYRLTADDVANINALNESAPAAS [pro-peptide truncation variant ΔS38-P46] | > 1.2
MDNGAGEETKSYAETYRLTATDVANINALNESAPAASSAGPSFRAP [pro-peptide variant D21T] | > 1.2
MDNGAGEETKSYAETYRCTADDVANINALNESAPAASSAGPSFRAP [pro-peptide variant L18C] | > 1.2
MDNGAGEETKSYAETYRGTADDVANINALNESAPAASSAGPSFRAP [pro-peptide variant L18G] | > 1.2
MDNGAGEETKSYAETYRRTADDVANINALNESAPAASSAGPSFRAP [pro-peptide variant L18R] | > 1.2
MDNGAGEETKSYAETYRVTADDVANINALNESAPAASSAGPSFRAP [pro-peptide variant L18V] | > 1.2
MDNGAGEETKSYAKTYRLTADDVANINALNESAPAASSAGPSFRAP [pro-peptide variant E14K] | > 5
MDNGAGEETKSYAETYRLTADDVANINALNESAPAASSAGPSFRAF [pro-peptide variant P46F] | > 1.2
MDNGAGEETKSYAETYRLTADSVANINALNESAPAASSAGPSFRAP [pro-peptide variant D22S] | > 1.2
MDNGAGEETKSYAYTYRLTADDVANINALNESAPAASSAGPSFRAP [pro-peptide variant E14Y] | > 5
MDNGAGEETKSYAETYRLTADDVCNINALNESAPAASSAGPSFRAP [pro-peptide variant A24C] | > 1.2
